Patent US20250381283A1, “METHOD FOR TREATING SOLID TUMOR” (priority 2022, published 2025)

Target: T1, TROP2 (Trophoblast cell surface antigen 2) (UniProt P09758 27-323, limits assumed)
T1 sequence (looked up): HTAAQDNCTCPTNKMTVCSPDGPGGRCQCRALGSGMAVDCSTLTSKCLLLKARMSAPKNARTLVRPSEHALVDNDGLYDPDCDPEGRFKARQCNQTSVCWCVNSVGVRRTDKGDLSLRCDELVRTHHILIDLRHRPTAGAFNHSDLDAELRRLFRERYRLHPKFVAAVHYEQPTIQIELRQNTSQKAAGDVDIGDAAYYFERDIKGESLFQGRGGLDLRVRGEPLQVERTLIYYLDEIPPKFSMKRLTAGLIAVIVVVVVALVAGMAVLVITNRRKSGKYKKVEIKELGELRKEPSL
Assay: cell-based or functional assay

B1: ADC1 (hRS9 antibody conjugated to CB07-Exatecan) (antibody, human IgG1, kappa, DAR 4.2, V domains shown)
VH: QVQLQQSGSELKKPGASVKVSCKASGYTFTNYGMNWVKQAPGQGLKWMGWINTYTGEPTYTDDFKGRFAFSLDTSVSTAYLQISSLKADDTAVYFCARGGFGSSYWYFDVWGQGTLVTVSS
VL: DIQLTQSPSSLSASVGDRVSITCKASQDVSIAVAWYQQKPGKAPKLLIYSASYRYTGVPDRFSGSGSGTDFTLTISSLQPEDFAVYYCQQHYITPLTFGAGTKVEIKR
modifications: CB07-Exatecan linker-drug conjugated to sulfhydryls of TCEP-reduced cysteines; average DAR (p) 4.2 over the whole antibody; positions not given
- growth inhibition EC50 (CCK-8 cell proliferation, 120 h), MDA-MB-453 cells: 0.64 µg/mL
- growth inhibition EC50 (CCK-8 cell proliferation, 120 h), MDA-MB-468 cells: 0.158 µg/mL
- growth inhibition EC50 (CCK-8 cell proliferation, 120 h), MX-1 cells: 0.233 µg/mL
